# Values quoted from earlier work, collected in article PMC7557795.
# Assays:
# [1] = target: IL-6R/gp130 (Homo sapiens) (UniProt P08887)
# IL-6R (Homo sapiens) = IL-6R (Homo sapiens) (UniProt P08887)
# Sequence of IL-6R (Homo sapiens) (P08887 20-355): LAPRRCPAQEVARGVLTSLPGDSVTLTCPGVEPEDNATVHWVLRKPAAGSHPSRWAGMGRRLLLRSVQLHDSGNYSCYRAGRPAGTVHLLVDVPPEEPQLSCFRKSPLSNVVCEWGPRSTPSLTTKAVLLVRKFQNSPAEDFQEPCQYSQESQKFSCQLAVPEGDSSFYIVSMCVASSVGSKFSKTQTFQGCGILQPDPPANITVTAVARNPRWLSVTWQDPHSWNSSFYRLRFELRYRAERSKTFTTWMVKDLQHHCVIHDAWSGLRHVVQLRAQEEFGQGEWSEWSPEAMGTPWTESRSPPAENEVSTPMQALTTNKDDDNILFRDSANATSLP
# Sequence of IL-6 (P05231 30-212): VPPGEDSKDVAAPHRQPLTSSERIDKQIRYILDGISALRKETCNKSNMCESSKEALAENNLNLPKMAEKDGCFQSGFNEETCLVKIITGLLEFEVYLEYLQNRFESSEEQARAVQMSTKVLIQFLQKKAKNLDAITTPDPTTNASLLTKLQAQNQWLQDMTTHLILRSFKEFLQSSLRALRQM
# Sequence of IL-6R/gp130 (Homo sapiens) (P08887 20-365, chain 1 of 2): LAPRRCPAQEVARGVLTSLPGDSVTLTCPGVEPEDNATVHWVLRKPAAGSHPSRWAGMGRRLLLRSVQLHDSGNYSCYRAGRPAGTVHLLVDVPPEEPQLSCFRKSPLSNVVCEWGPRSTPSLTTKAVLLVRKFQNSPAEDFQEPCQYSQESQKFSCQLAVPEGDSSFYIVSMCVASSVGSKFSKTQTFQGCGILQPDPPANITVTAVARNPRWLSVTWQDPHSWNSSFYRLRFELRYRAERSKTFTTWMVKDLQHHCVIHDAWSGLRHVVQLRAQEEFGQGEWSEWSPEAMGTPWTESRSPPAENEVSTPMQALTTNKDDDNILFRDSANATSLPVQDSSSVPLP
# Sequence of IL-6R/gp130 (Homo sapiens) (partner, as listed by the source, chain 2 of 2): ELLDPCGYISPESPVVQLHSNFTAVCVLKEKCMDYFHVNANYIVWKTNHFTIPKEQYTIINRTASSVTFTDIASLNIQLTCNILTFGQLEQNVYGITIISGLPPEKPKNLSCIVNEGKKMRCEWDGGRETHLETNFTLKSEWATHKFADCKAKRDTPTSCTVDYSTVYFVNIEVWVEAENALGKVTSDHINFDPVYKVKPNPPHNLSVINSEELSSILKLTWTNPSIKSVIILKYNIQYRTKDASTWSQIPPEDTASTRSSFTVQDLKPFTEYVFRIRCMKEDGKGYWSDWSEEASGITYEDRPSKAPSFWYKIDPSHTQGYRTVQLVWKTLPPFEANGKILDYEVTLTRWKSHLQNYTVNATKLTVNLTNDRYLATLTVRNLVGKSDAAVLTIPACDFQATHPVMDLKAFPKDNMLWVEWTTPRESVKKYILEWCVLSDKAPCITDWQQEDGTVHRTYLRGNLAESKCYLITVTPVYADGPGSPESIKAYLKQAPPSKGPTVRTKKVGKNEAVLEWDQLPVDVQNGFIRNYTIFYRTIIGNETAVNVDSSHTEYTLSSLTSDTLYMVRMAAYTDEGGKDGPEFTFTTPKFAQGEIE
substance,measurement,setting,value
IL-6 (from UniProt P05231),Kd,[1],0.08 nM
same,Kd,IL-6R (Homo sapiens),0.9 nM
